Data published in a protein production outcome set (Wang et al. 2014).

Assay: label from the status in PepcDB records

**Q.** For “MAQVINEMDVPSHSFVFHGTGERYFLICVVNVLLTIITLGIYLPWALMKCKRYLYANMEVNGQRFSYGITGGNVFFSCLVFVFFYFAILMTVSADMPLIGCVLTLSLLVLLIFMAAKGLRYQALMTSLNGVRFSFNCSMKGVWWVTFFLPILMAIGMGTVFFISTKMLHANSSSSVIVSVVLMAIVGIVSIGIFNGTLYSLVMSFLWSNTSFGIHRFKVKLDTAYCIKYAILAFLALLPFLAVAGYIIFDQILNAYDSSVYANDDIENLQQFMEMQRKMIIAQLIYYFGIAVSTSYLTVSLRNHFMSNLSLNDGRIRFRSTLTYHGMLYRMCALVVISGITGGLAYPLLKIWMIDWQAKNTYLLGDLDDLPLINKEEQPDKGFLASISRGIMPSLPFL”, which protein production is on record?
**A.** failed

**Q.** For “EYISVKSQNELLEASTPHPGTRNHIPQLDVDANELALVYRARGMSEADAEQKAAEAFVNLRNAEDQAIIDEPRNDEPING”, which protein production is on record?
**A.** failed

**Q.** For “MMSGEHTLKAVRGSFIDVTRTIDNPEEIASALRFIEDGLLLIKQGKVEWFGEWENGKHQIPDTIRVRDYRGKLIVPGFVDTHIHYPQSEMVGAYGEQLLEWLNKHTFPTERRYEDLEYAREMSAFFIKQLLRNGTTTALVFGTVHPQSVDALFEAASHINMRMIAGKVMMDRNAPDYLLDTAESSYHQSKELIERWHKNGRLLYAITPRFAPTSSPEQMAMAQRLKEEYPDTWVHTHLCENKDEIAWVKSLYPDHDGYLDVYHQYGLTGKNCVFAHCVHLEEKEWDRLSETKSSIAFCPTSNLYLGSGLFNLKKAWQKKVKVGMGTDIGAGTTFNMLQTLNEAYKVLQLQGYRLSAYEAFYLATLGGAKSLGLDDLIGNFLPGKEADFVVMEPTATPLQQLRYDNSVSLVDKLFVMMTLGDDRSIYRTYVDGRLVYERN”, which protein production is on record?
**A.** failed

**Q.** With “MAAKQGESDPERKETRQKVDDDRKHEIEAAIVRIMKSRKKMQHNVLVAEVTQQLKARFLPSPVVIKKRIEGLIEREYLARTPEDRKVYTYVA” as the sequence, how does the protein production read?
**A.** not failed

**Q.** For “MLLLHWDNMGKIELHHVFVMLSCIYLIFSDISINSAVVFLFSSIFFYISFTAGKRLYYLIGIDKENLKINLKKHYNFGIFLMIVGLIAVTSDLIWVKDVPLFNPLSRKFLNVYFTTLSHLFLVGWAIVVASSNIDKKKILLYTIIFSILIMLLGYRTNVLVLLISVGAILYYKNKISNREILKYGILVFVILLGLSILRLYALGVEGNPITSRISLTMSIYDIIFNNFNGVFNGYIHYSAVFSYLGLCNGARTVIAKTLGIYNVSITPTIVGAVIGDYGTLAIIPYFGILGIFLGFFYKLAKDVKGIYLGIYGILFAYTLIGIESGILDIDVILYYFFGLILCIYAILLRKLKR”, which protein production is on record?
**A.** failed

**Q.** Which protein production does the source give for “MSNSSIDIGVPSLPPPFSIGTISIPTFSRQHLFLKIILHYNLVERYSRQLIVLGLGIQQRLNELKILIAGCGALGTAVAELLARLGVKELTIVDADVVDITNLHRVHLFDENDVGKPKAEVCAKKISLINSSIKINYIIDILDEENVERLISDKDYVFDALDSLYYKLLLNDAIVKLGKILIYGGINGEYGSAKLIDPSQTSCLSCFIDYSDQDEIGNSCDVIGTTPLIVELTATLQVNLMLNHLRGNPDYSLFYIDSRELKIERINIEKNSQCKTCVLNEYPFLYQKISKPKCGIFRTNMKIPELDEPKVFKNLGNVTLCYPSIGCFEKRGR” here?
**A.** failed

**Q.** Which protein production does the source give for “MDAKVAFSPHSDANGRLDEIGADIDTAQSSVLFSLAFLGQMTRGAIGPALGRALERPEVHVMGIADAEVRAGNLGLNVLTPDNRRRVVRAAALTGNVPPPFLTEPSGLAGVDGNQRGTRMHHKFVVLDFDKPTARVYLGSYNFSNPADDENGENLVVVRDRTVATSYMIEALRMYDHLEHHHHHH” here?
**A.** failed

**Q.** With “MAQFLRRFSSSPMANEDEFQSPVEPSQQQSQDCVSESYLIGFVIANIVGLKYYSGRINGREMVGLVREPLNVYDNNAIRVLNTRSEQVGHIERTVAAVLAPMIDSHTIVVEGIVPNTRSNSNRYRIPCQIHVFAKLEASSTVKSTISRGGLVLISESDTSFGLSEAVVVKEQMGNGDKRSVDKIFKLVDENVKLMGKLVAAEPPREVIKSELFAHQKEGLGWLLHREKSGELPPFWEEKDGEFLNTLTNYRSDKRPDPLRGGVFADDMGLGKTLTLLSLIAFDRYGNASTSTPTEEPLDGEGDKIEKKGKKRGRGKSSESVTRKKLKTDDVVGMNVSQKTTLIVCPPSVISAWITQLEEHTVPGILKVYMYHGGERTDDVNELMKYDIVLTTYGTLAVEESWEDSPVKKMEWLRIILDEAHTIKNANAQQSRVVCKLKASRRWAVTGTPIQNGSFDLYSLMAFLRFEPFSIKSYWQSLIQRPLGQGNKKGLSRLQVLMATISLRRTKEKSLIGLPPKTVETCYVELSPEERQLYDHMEGEAKGVVQNLINNGSLMRNYSTVLSIILRLRQLCDDMSLCPPELRSFTTSTSVEDVTDKPELLQKLVAALQDGEDFDCPICISPPTNIIITRCAHIFCRACILQTLQRSKPLCPLCRGSLTQSDLYNAPPPPPDSSNTDGEDAKSSTKSSKVSALLSLLMASRQENPNTKSVVFSQFRKMLLLLETPLKAAGFTILRLDGAMTVKKRTQVIGEFGNPELTGPVVLLASLKASGTGINLTAASRVYLFDPWWNPAVEEQAMDRIHRIGQKQEVKMIRMIARNSIEERVLELQQKKKNLANEAFKRRQKKDEREVNVEDVVALMSL” as the sequence, how does the protein production read?
**A.** failed

**Q.** With “MKIINIGVLAHVDAGKTTLTESLLYTSGAIAESGSVDTGTTRTDTTFLERQRGITIQTAVTSFQWKDIKVNIIDTPGHMDFLAEVYRSLSVLDGAILLISARDGVQAQTRILFHALNKMGIPTIFFINKIDQNGIDLSTVYQDIKEKLSMEIIIKQKVELHPNMCVMSCTEPEQWDVVIEGNDYLLEKYTLGKSLEILELEQEEIRRFQNCSLYPVYHGSAKSNIGIEQLIEVITNKFYSSTYRKKSELCGNVFKIEYSEERQRLAYVRLYGGILHLRDSVRISEKEKIKITEMYTSINGELCKIDKAYSGEIVILQNEFLKLNSVLGDTKLLPQRERIENPLPLLQTTVEPSKPQQREMLLDALLEISDSDPLLQYYVDSTTHEIILSFLGKVQMEVTCALLQEKYHVEVKIKKPTVIYMERPLKKAEYTIHIEVPPNPFWASIGLSVAPLPLGSGVQYESSVSLGYLNQSFQNAVMEGIRYGCEQGLYGWNVTDCKICFKYGLYYSPVSTPADFRMLAPIVLEQVLKKAGTELLEPYLSFKIYAPQEYLSRAYNDAPKYCANIVDTQLKNNEVILSGEIPARCIQEYRNDLTFFTNGRSVCLTELKGYYVTTGESVCQPRRPNSRIDKVRYMFNKIT” as the sequence, how does the protein production read?
**A.** failed

**Q.** For “MIESRRFVSDVMITFIASLVNIIISFPISVVIGRYLGVEDLGAYRLVFSIYGLSLLFANAGIPAAVIKQISEIKEDPKSTVKVISSSFFTSSLLGIFFLIFYLLFAETLSNIFGTPELADLIRIISLSFPFSVTGSTMLATLNGFRDMKKHATAILIQSVLMLFFTILSITFGYGVNGAVGASVISSIGYCVYLLRYLGKYIKIINFSDAVHYSKSMITFGLQTVVANAVNLINFQADTIMVGYFLTKTDVGFYSVAVLLAKLLWLIPDSIQKITYPLISEHYNNSGTEYINRAIETIMKYTMCISIVIGSGMIFYGEGIITSIYGASFIESVNPYYILIVGTMIFSIVKCVNSLFASIGRVDLFAKIPTYSAAVNILLNLVLIPIYHINGAAIATSTSLLIYVLVMIYYMKKLVNIHINVIWYSKAIFLFAMLIIINYILSLFTPFNSSGILTVSLGCLLLWIYILEPSDRVFFLSLVTKLKSLSLN”, which protein production is on record?
**A.** failed

**Q.** With “QTDPKKPTTDEGTASSEVNATEEMSTLVNYIEPVKFKSFEAARKRNKCFEMSSFVETKAMEQLTKSPMEFVEYNKQQLSRIYPKGTRVDSSNYMPQLFWNVGCQLVALNFQTLDVAMQLNAGVFEYNGRSGYLLKPEFMRRPDKSFDPFTEVIVDGIVANALRVKVISGQFLSDRKVGIYVEVDMFGLPVDTRRKYRTRTSQGNSFNPVWDEEPFDFPKVVLPTLASLRIAAFEEGGKFVGHRILPVSAIRSGYHYVCLRNEANQPLCLPALLIYTEASDYIPDDHQDYAEALINPIKHVSLMDQRARQLAALIGESEAQAGQETCQDTQSQQLGSQPSSNPTPSPLD” as the sequence, how does the protein production read?
**A.** failed

**Q.** Which protein production does the source give for “MEVNRLSALTPPMGWNSWDCYGASVTEEEVLGNAEYMANHLKKYGWEYIVVDIQWYEPTANSSAYNPFAPLCMDEYGRLLPATNRFPSAKNGAGFKPLSDAIHDLGLKFGIHIMRGIPRQAVYENSPVLGSTKTAREIAHTNSICPWNTDMYGVDPTKEGAQSYYNSLFELYAQWGVDFVKVDDIAASRLYDTHLEEIKMIQRAIQACGRPMVLSLSPGPAPIKYAHHFKTNANMWRITDDFWDDWSLLYQMFERCEVWEKHIGTGHWPDCGMLPLGHIGIRSVDGPGGDRWTRFTKDEQLTMMNLWAICHSPLMFGGELRDNDEWTLSLLTNEGILSINQKSVLNRFVYREEDKVAWAANGRNGEAYVALFNLHDQQKTLQFRLDMVGIMETVQLFNVWDRSFLQSLAPSESFQIELKPHQSMMLKLSPDR” here?
**A.** not failed

**Q.** For “FTLEEEDITGTWYVKAMVVDKDFPEDRRPRKVSPVKVTALGGGNLEATFTFMREDRCIQKKILMRKTEEPGKFSAYGGRKLIYLQELPGTDDYVFYCKDQRRGGLRYMGKLVGRNPNTNLEALEEFKKLVQHKGLSEEDIFMPLQTGSCVLEH”, which protein production is on record?
**A.** failed

**Q.** For “MSFVTTQPEALAAAAANLQGIGTTMNAQNAAAAAPTTGVVPAAADEVSALTAAQFAAHAQMYQTVSAQAAAIHEMFVNTLVASSGSYAATEAANAAAAG”, which protein production is on record?
**A.** failed

**Q.** With “MSTPIDTYWRLRLTEVAESLRANNFAVSLVDSCEEAGRVFLDDLLPASGASSVSFGGSMTLVKCGVPEALRQRADLQLLDTFDKNLSAAEMYERRRQSLLVDMFLTGTNAVTMDGKLINLDMIGNRVGAINFGPRNVVLFVGRNKVVDTVEDGMRRIKEYASPVNAIRLDKKTPCKKTAQCMDCKSPDRICNVWTITEKCFPSGRVHVILINEDAGY” as the sequence, how does the protein production read?
**A.** failed

**Q.** For “MRQRDDSKRIAFLEATVREVADHGFSATSVGKIAKAAGLSPATLYIYYEDKEQLLLATFYYVSDQVIDAALDSFSRGKDLREGLRRQWHTLFRIGLERPELFRYHETFTHSAWMTPEIQARNESRAANLLNAVDQGKQSGLIKPVPFPLLETFMFRPIYHLVQRCLQGSFEGTDEHIELAFNMAWDAVADRRNT”, which protein production is on record?
**A.** not failed

**Q.** For “MNTPQFNKIAVLVATLLISALFLTMIRQFLVTILLAGIFTGLAYPLFSRFITLTRGHRSLSASMTLVIFFMMVFLPLLAVFTVVILQAVSLSSTAIPLIREQLRDPEGFLRMLSSLPFYKDIESYSDLILEKAAEILGNLGSSVLSSFSAITWTAIYDLVLFIIFWYTMFFLLRDGHELLERIKYYLPLNESDQRRLFDRFVSVTRASLKGSLIIAVIQGTLAGLAFYVAGINQAVFWGAIMAMLSLLPLIGSPIIWVPAVIILALSGNYAQAIGLFLFCSIIVGQIDNVLRPILVGRDTSMHELFIFFGTLGGIGMFGLPGFIIGPVVAALFVTVWDIYGETFNESLIERRSGGGQAAGSDGSAP”, which protein production is on record?
**A.** failed

**Q.** For “MMKKMMVLYNETSGSSESKEIAERFKKAAEARGEAVILQPSNPDIDPEEMRKNAKENQVGVLVVIGGDGTIHHAVQNFKDTIRDYQIGIIPGGTVNNFARVLSIPLKEEDAFETILAGQTTPVDFGMVNQD”, which protein production is on record?
**A.** failed

**Q.** With “MKQVPDVNKIKFDPETKRIVRKDVPLMMNSFDKKAVEEAIRISERHGWETCVATMGPPQAVEVINEALRMGIERGYLITDPSLANSDTLITSRVLAAFALRYGPDLVLMGKYSLDGETSQVPAEVSALMGWPYVPSVSKIMISDHLELEQELENGIYTCSAPLPCVLSLSEKINRARAIKPDTPQMYDRIVQIDTKWLGLDLDGGRDSPTAVIGTEQVNSNRSPVFIDPGADMYRQIMEIIRVSR” as the sequence, how does the protein production read?
**A.** failed

**Q.** Which protein production does the source give for “MPVQENSFKSYSEVITGSIIYGTIGVFLDRVQDMSVGSVLFCRLLFGVFMIFFYLLLSGSLEQLRLRRNRKYLLLLGFLNAVTGICYLSAIRHSGISTAVLLLYTAPVYVNLLAPAILGEKGSSKSFLPLILSVLGVLLITRPGEILFNINAGSEFIKGLLYGILSGISFGTTIILIRYLRHDYTGISQTFWLTGVSLLFMLPSALLTPASVFLKNFDTLFLFGITITFAAILYLRGISGIKAQTGSILALLEPVSGIFFDTVVLRSPFYISTLLGCVLILTAAYLVSRNGTGDQSLKTDNQPVL” here?
**A.** failed
